# Data reported in PMC6613885.
# Target: GST-LC3A
# Test: GST-pulldown, in vitro-translated 35S-labelled protein, autoradiography quantification
# Conditions: Means ± SD of 3 independent experiments; parent: est. 0.5; read off a plot
row,response [% binding],Substance
1,0.6,"Myc-tagged BECN1, full-length, in vitro translated (from UniProt Q14457) S90E; S93E; S96E"
2,0.25,"Myc-tagged BECN1, full-length, in vitro translated (from UniProt Q14457) F97A; I100A"
3,0.25,"Myc-tagged BECN1, full-length, in vitro translated (from UniProt Q14457) F97A; I100A; S90E; S93E; S96E"

# Same assay, conditions: Means ± SD of 3 independent experiments; parent: est. 1.7; read off a plot
row,response [% binding],Substance
1,1.2,"Myc-tagged PIK3C3, full-length, in vitro translated (from UniProt Q8NEB9) F250A; V253A"
2,1,"Myc-tagged PIK3C3, full-length, in vitro translated (from UniProt Q8NEB9) F198A; I201A; F250A; V253A"
3,1.8,"Myc-tagged PIK3C3, full-length, in vitro translated (from UniProt Q8NEB9) F198A; I201A"

# Same assay, conditions: Means ± SD of 3 independent experiments; parent: est. 2.6; read off a plot
row,response [% binding],Substance
1,1,"Myc-tagged ATG14, full-length, in vitro translated (from UniProt Q6ZNE5) F64A; F67A; W435A; L438A"
2,1.2,"Myc-tagged ATG14, full-length, in vitro translated (from UniProt Q6ZNE5) W435A; L438A"
3,2.3,"Myc-tagged ATG14, full-length, in vitro translated (from UniProt Q6ZNE5) F64A; F67A"
